Test results as given in US7070973B2, “Butyrylcholinesterase variants and methods of use” (priority 2000, dated 2006).
Changes are numbered by the printed parent chain. In names and notes the source's numbering stands. Several values for one entry are separate records, joined by “and”; a condition that tells them apart may be missing. Equal entries are not always repeated. Where two headings read alike, the source gives them in different places.

Key:
cocaine toxicity = details: infusion of cocaine at 1 mg/kg/min, catecholamine levels standardized; cited from earlier work
[1] = Isotope tracer cocaine hydrolysis assay, Lineweaver-Burk plot; assay type: biochemical; details: 2 hour incubation at 37° C., x intercept of double-reciprocal plot
Text: (§1) At the conclusion of the isotope tracer assay, an aliquot of the reaction mix is acidified in order to take advantage of the solubility difference between the product and the substrate at pH 3.0.

[2] = Gatley 1991; Xie et al. 1999; read-out: Km for cocaine hydrolysis, previously published values; cited from earlier work
[3] = Spectrophotometric (240 nm) cocaine binding and hydrolysis assay with purified butyrylcholinesterase variants; assay type: biochemical; details: for Cocaine Binding or Cocaine Hydrolysis (result in words): Table 4
Description: […]. Pharmacol. 41:1249–1254 (1991). Km values were determined in 0.1M potassium phosphate pH 7.0 at 30° C. for (−)-cocaine. Vmax values and Km values were calculated using Sigma Plot for Macintosh (Jandel Scientific, San Rafael, Calif.).
Once Vmax values and Km values were calculated, the number of active sites in each butyrylcholinesterase preparation was determined. The titration of active sites was performed with chlorpyrifos oxon (MET-674B, Chem Service, West Chester, Pa.), an inhibitor of butyrylcholinesterase. One molecule of chlorpyrifos oxon binds and inhibits one molecule of butyrylcholinesterase, which allows for calculation of the number of active sites. Based on the number of active sites, the kcat value for each variant was calculated (Table 3). […].

[4] = Xie et al. 1999; cited from earlier work
[5] = Microtiter [3H]-cocaine isotope tracer hydrolysis assay with immobilized butyrylcholinesterase variants; assay type: biochemical; details: for increase in cocaine hydrolysis activity compared to human butyrylcholinesterase: region 5 library variants, Examples II through VI; for enhanced cocaine hydrolase activity (library screen): region five library, hydrolysis of [3H]-cocaine
Text: as §1
The supernatants isolated from each of the butyrylcholinesterase variant library clones contains variable butyrylcholinesterase enzyme concentrations.
At least three approaches are used to either increase the assay sensitivity or the assay signal.

[6] = stored at 4° C., after 18 months (Lynch et al.); cited from earlier work

COC(=O)[C@H]1[C@@H](OC(=O)c2ccccc2)C[C@@H]2CC[C@H]1N2C [cocaine]
LD90 (cocaine toxicity): 16 mg/kg

horse butyrylcholinesterase
Km [1]: ~37.6 µM
Km [2]: 38 µM and 45 µM

B1: A328Y (protein, UniProt P06276 29-602, looked up, variant A328Y)
Cholinesterase: EDDIIIATKNGKVRGMNLTVFGGTVTAFLGIPYAQPPLGRLRFKKPQSLTKWSDIWNATKYANSCCQNIDQSFPGFHGSEMWNPNTDLSEDCLYLNVWIPAPKPKNATVLIWIYGGGFQTGTSSLHVYDGKFLARVERVIVVSMNYRVGALGFLALPGNPEAPGNMGLFDQQLALQWVQKNIAAFGGNPKSVTLFGESAGAASVSLHLLSPGSHSLFTRAILQSGSFNAPWAVTSLYEARNRTLNLAKLTGCSRENETEIIKCLRNKDPQEILLNEAFVVPYGTPLSVNFGPTVDGDFLTDMPDILLELGQFKKTQILVGVNKDEGTYFLVYGAPGFSKDNNSIITRKEFQEGLKIFFPGVSEFGKESILFHYTDWVDDQRPENYREALGDVVGDYNFICPALEFTKKFSEWGNNAFFYYFEHRSSKLPWPEWMGVMHGYEIEFVFGLPLERRDNYTKAEEILSRSIVKRWANFAKYGNPNETQNNSTSWPVFKSTEQKYLTLNTESTRIMTKLRAQQCRFWTSFFPKVLEMTGNIDEAEWEWKAGFHRWNNYMMDWKNQFNDYTSKKESCVGL
Km ([3]; (−)-cocaine, 0.1M potassium phosphate pH 7.0 at 30° C.): 9 µM
kcat (hydrolysis rate) ([3]; (−)-cocaine, active sites titrated with chlorpyrifos oxon): 0.17 s⁻¹
Hydrolyzes cocaine faster than wild-type ([3]; compared to wild-type butyrylcholinesterase): Hydrolyzes cocaine 4 times faster than wild-type
increase in cocaine hydrolysis activity compared to human butyrylcholinesterase [4]: four

B2: S224Y (protein, UniProt P06276 29-602, looked up, variant S224Y)
Cholinesterase: B1 Cholinesterase with S224Y, Y328A
Cocaine Binding or Cocaine Hydrolysis (result in words) [3]: No activity

B3: G116W (protein, UniProt P06276 29-602, looked up, variant G116W)
Cholinesterase: B1 Cholinesterase with G116W, Y328A
Cocaine Binding or Cocaine Hydrolysis (result in words) [3]: no activity

B4: L286H (protein, UniProt P06276 29-602, looked up, variant L286H)
Cholinesterase: B1 Cholinesterase with L286H, Y328A
Cocaine Binding or Cocaine Hydrolysis (result in words) [3]: Not a cocaine hydrolase

B5: P285S (protein)
chain: B1 Cholinesterase with P285S, Y328A
modifications: Human Butyrylcholinesterase variant
increase in cocaine hydrolysis activity compared to human butyrylcholinesterase [5]: approximately three
enhanced cocaine hydrolase activity (library screen) [5]: enhanced cocaine hydrolase activity

B6: A328H (protein, UniProt P06276 29-602, looked up, variant A328H)
Cholinesterase: B1 Cholinesterase with Y328H
Cocaine Binding or Cocaine Hydrolysis (result in words) [3]: Not a cocaine hydrolase

B7: S287G (protein)
chain: B1 Cholinesterase with S287G, Y328A
modifications: Human Butyrylcholinesterase variant
increase in cocaine hydrolysis activity compared to human butyrylcholinesterase [5]: four
enhanced cocaine hydrolase activity (library screen) [5]: enhanced cocaine hydrolase activity

B8: V288W (protein, UniProt P06276 29-602, looked up, variant V288W)
Cholinesterase: B1 Cholinesterase with V288W, Y328A
Cocaine Binding or Cocaine Hydrolysis (result in words) [3]: Not a cocaine hydrolase

B9: L286W (protein, UniProt P06276 29-602, looked up, variant L286W)
Cholinesterase: B1 Cholinesterase with L286W, Y328A
Cocaine Binding or Cocaine Hydrolysis (result in words) [3]: Not a cocaine hydrolase

B10: A328G (protein, UniProt P06276 29-602, looked up, variant A328G)
Cholinesterase: B1 Cholinesterase with Y328G
Cocaine Binding or Cocaine Hydrolysis (result in words) [3]: Not a cocaine hydrolase

B11: butyrylcholinesterase (protein, listed as Homo sapiens)
chain: B1 Cholinesterase with Y328A
original activity retained [6]: over 90%

B12: G439L (protein, UniProt P06276 29-602, looked up, variant G439L)
Cholinesterase: B1 Cholinesterase with Y328A, G439L
Cocaine Binding or Cocaine Hydrolysis (result in words) [3]: No cocaine hydrolysis activity

B13: P285Q (protein)
chain: B1 Cholinesterase with P285Q, Y328A
modifications: Human Butyrylcholinesterase variant
increase in cocaine hydrolysis activity compared to human butyrylcholinesterase [5]: four and approximately four
enhanced cocaine hydrolase activity (library screen) [5]: enhanced cocaine hydrolase activity
